# Assay results reported in patent US20030134799A1.
# pIC50: −log10 of the molar value. Where two headings read alike, the source gives them in different places.
# Tests used:
# [1] = target: NMDA receptor of well-washed rat forebrain membranes (rat) (UniProt Q9R1M7)
# [2] = target: NMDA receptor of primary cultures of rat cerebellar granule cells (rat); assay: cell-based or functional assay
# [3] = target: NMDA receptor of well-washed rat forebrain membranes (rat) (UniProt Q9R1M7); assay: cell-based or functional assay
# [4] = target: NMDA receptor of well-washed rat forebrain membranes (rat) (UniProt Q9R1M7); assay: displacement of [3H]ifenprodil, polyamine-sensitive site
# Chain of NMDA receptor of well-washed rat forebrain membranes (rat) (Q9R1M7 24-1135): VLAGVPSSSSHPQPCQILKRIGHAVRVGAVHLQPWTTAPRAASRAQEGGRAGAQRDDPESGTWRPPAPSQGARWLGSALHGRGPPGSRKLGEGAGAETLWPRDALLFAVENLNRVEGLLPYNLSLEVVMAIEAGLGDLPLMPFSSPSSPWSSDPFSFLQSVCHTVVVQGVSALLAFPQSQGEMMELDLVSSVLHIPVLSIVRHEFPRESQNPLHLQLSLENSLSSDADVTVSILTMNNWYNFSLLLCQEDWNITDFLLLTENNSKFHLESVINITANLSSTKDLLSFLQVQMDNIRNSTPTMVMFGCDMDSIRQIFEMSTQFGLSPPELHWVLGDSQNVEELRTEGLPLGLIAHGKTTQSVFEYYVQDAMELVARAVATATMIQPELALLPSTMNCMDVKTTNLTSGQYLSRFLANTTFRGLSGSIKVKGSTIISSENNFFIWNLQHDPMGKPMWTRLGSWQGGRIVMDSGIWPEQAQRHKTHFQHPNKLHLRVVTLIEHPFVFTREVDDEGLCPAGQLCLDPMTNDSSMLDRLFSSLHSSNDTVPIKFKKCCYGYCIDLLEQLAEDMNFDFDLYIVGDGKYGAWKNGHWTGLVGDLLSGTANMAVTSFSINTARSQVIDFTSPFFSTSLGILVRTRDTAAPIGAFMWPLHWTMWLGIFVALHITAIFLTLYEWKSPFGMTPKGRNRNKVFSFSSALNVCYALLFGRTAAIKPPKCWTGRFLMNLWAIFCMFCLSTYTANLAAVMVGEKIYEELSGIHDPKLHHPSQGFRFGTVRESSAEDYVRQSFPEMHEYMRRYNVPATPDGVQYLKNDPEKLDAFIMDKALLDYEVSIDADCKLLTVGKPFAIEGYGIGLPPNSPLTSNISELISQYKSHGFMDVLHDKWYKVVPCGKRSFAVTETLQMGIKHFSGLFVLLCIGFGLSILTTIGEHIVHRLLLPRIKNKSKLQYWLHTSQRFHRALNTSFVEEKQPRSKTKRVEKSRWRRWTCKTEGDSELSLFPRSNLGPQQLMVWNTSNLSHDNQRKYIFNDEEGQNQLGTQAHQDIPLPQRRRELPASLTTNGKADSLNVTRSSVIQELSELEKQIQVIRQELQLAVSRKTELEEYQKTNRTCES
substance,measurement,setting,value
Conantokin-G (peptide),pIC50,[1],< 5.30
same,"IC50, inhibition of NMDA-stimulated increases in cyclic GMP formation",[2],300 nM
same,"% Inh, spermine-enhanced [3H]MK-801 binding",[3],100%
same,"% Sti, [3H]MK-801 binding without spermine",[3],0%
same,"IC50, antagonism of Gly-stimulated [3H]MK-801 binding, representative experiment",[3],835 nM
same,"IC50, inhibition of spermine-enhanced [3H]MK-801 binding, typical experiment",[3],275 nM
same,"IC (µM), inhibition of spermine-enhanced [3H]MK-801 binding",[3],0.16 µM
same,pIC50,[4],< 5.30
